# Measurements reported in article PMC4529466, “Intradermal insulin infusion achieves faster insulin action than subcutaneous infusion for 3-day wear” (Drug Delivery and Translational Research, 2015).
# Assay: Safety: adverse events, hypoglycemia, Draize erythema and edema scoring of infusion site
# Assay type: in vivo, human (T1DM patients)
# Method: Safety evaluations comprised of recording/classification of adverse events (including hypoglycemia, BG < 60 mg/dL with or without symptoms), physical examinations, clinical laboratory parameters, vital signs, subjective pain assessments, and assessments of local tissue response at the injection site. Visual observations of the area around the infusion site for skin irritation, insulin leakage, and any notable abnormalities were recorded after each bolus delivery. Upon device removal, the study physician checked the site of insulin administration, as well as 1 and 2 h later, and scored any local reactions according to the Draize erythema and edema scale.
# Pharmacokinetic parameters were derived from baseline corrected blood insulin data. The pharmacokinetic and pharmacodynamic populations included all patients with data from either route across 3 days of infusion and patients exposed to at least one trial product with available data respective of PK/PD endpoints. PK and PD endpoints were analyzed using a linear mixed effects model (ANOVA) with sequence, application route, meal, and day as factors along with interactions. The safety population included all patients who had participated in any trial-related activity after randomization. VAS pain data comparisons were made between application routes at each assessment time point using a similar model. Safety evaluations were summarized by descriptive statistics.
substance,measurement,setting,value
insulin aspart,hypoglycemic episodes (BG below 60 mg/dL),ID infusion,67 episodes
same,subjects with hypoglycemic episodes,ID infusion,22 subjects
same,instances with Draize erythema score 2,"ID route, within 2 h after set removal on day 3",4/24
same,hypoglycemic episodes (BG below 60 mg/dL),SC infusion,56 episodes
same,subjects with hypoglycemic episodes,SC infusion,18 subjects
same,"detected hypoglycemic episodes, total","across the study, both routes, majority asymptomatic",123 episodes
same,Draize erythema and edema upon removal of infusion set,"both routes, immediately after removal on day 3",essentially no detectable erythema or edema
same,"adverse events (AEs), total","entire study, both routes, mild to moderate severity, none serious",31
